# B1: KSHV glycoprotein H (gH), residues 22-698 (domain or fragment)
# chain: ATGALPTTATTITRSATQLINGRTNLSIELEFNGTSFFLNWQNLLNVITEPALTELWTSAEVAEDLRVTLKKRQSLFFPNKTVVISGDGHRYTCEVPTSSQTYNITKGFNYSALPGHLGGFGINARLVLGDIFASKWSLFARDTPEYRVFYPMNVMAVKFSISIGNNESGVALYGVVSEDFVVVTLHNRSKEANETASHLLFGLPDSLPSLKGHATYDELTFARNAKYALVAILPKDSYQTLLTENYTRIFLNMTESTPLEFTRTIQTRIVSIEARRACAAQEAAPDIFLVLFQMLVAHFLVARGIAEHRFVEVDCVCRQYAELYFLRRISRLCMPTFTTVGYNHTTLGAVAATQIARVSATKLASLPRSSQETVLAMVQLGARDGAVPSSILEGIAMVVEHMYTAYTYVYTLGDTERKLMLDIHTVLTDSCPPKDSGVSEKLLRTYLMFTSMCTNIELGEMIARFSKPDSLNIYRAFSPCFLGLRYDLHPAKLRAEAPQSSALTRTAVARGTSGFAELLHALHLDSLNLIPAINCSKITADKIIATVPLPHVTYIISSEALSNAVVYEVSEIFLKSAMFISAIKPDCSGFNFSQIDRHIPIVYNISTPRRGCPLCDSVIMSYDESDGLQSLMYVTNERVQTNLFLDKSPFFDNNNLHIHYLWLRDNGTVVEIRGMY
# notes: also called KSHV gH; source: High Five cells (baculovirus), secreted with gL, purified (HisTrap, Resource S, Superdex 200)
# Biological target: T1, KSHV glycoprotein L (gL), residues 21-167 (Kaposi sarcoma-associated herpesvirus …, UniProt F5HDB7 21-167)
# T1 construct: source: High Five cells (baculovirus), secreted with gH, purified (HisTrap, Resource S, Superdex 200)
# Assay: crystal structure; KSHV gHgL-LBD complex, mixed on ice 1 h and purified on Superdex 200 Increase; 3.2 Å
# Conditions: both partners purified
binder,measurement,value
B1,binding result,binds

# Reference: article PMC7687889, “Molecular basis of EphA2 recognition by gHgL from gammaherpesviruses” (Nature Communications, 2020)
